According to the supplement of paper PMC9170038:

Tested on: MS2 coat protein
Assay: apparent KD of MS2 coat protein; designed switch direction (-1 OFF switch, 1 ON switch): -1; higher = weaker reporter binding
How it was run: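 The buffer was Tris-HCl pH 7.5 with KCl, MgCl2, BSA, DTT, tRNA and Tween-20. In it, SNAP-549-labelled MS2 coat protein was titrated in doubling steps from 0.7 or 1.5 nM to 3 µM over chip-bound RNA switches transcribed by stalled E. coli RNA polymerase on Illumina chips. Apparent KD is the per-design median over clusters of curve fits to normalised fluorescence.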

[1] = input ligand: microRNA oligo, concentration not stated
[2] = Eterna round: R95, input ligand: microRNA oligo, concentration not stated
[3] = Eterna round: R95, input ligand: FMN 200 uM
[4] = Eterna round: R95, input ligand: none

Sequence	apparent KD of MS2 coat protein (input ligand: FMN 200 uM) [nM]	apparent KD of MS2 coat protein [1] [nM]	apparent KD of MS2 coat protein (input ligand: none) [nM]	apparent KD of MS2 coat protein [2] [nM]	apparent KD of MS2 coat protein [3] [nM]	apparent KD of MS2 coat protein [4] [nM]
AUUGUUUAUGUAGGAUAUGCCUGGCGUGCCUUUGCAGAAGGACAUGAGGAUCACCCAUGUAACAUGAGGCUCACCCAUGUCGCC [salish99_ExNG1_r04_114] (Eterna round: R96, puzzle: Exclusion NG 1)	162	123	170			
AUUGUUUAUGUAGGAUAUGCCUGGCGUGCCUUUGCAGAAGGACAUGAGGAUCACCCAUGUAACAUGAGGCUCACCCAUGUCGCG [salish99_ExNG1_r04_113] (Eterna round: R96, puzzle: Exclusion NG 1)	297	184	333			
AUUGUUUGAUACCUCUAAUACAUGAGGAUCACCCAUGUUAUCGAGGAUAUGUAGAAGAGAGGAGAACAGAAGGCGAAGUAAGAG [JR_ExcNG3_Sub095] (Eterna round: R96, puzzle: Exclusion NG 3)	14.6	14.5	17.7			
AUUUAACAUGAGGAUCACCCAUGUGAGGAUAUGUCCAUAUUCGGCAAAUCGGAUAUGGACAGAAGGCACACCGG [JR_Exclusion1_Sub008] (puzzle: Exclusion 1)				139		
AUUUAGCAAGCCAGAUCCUACAUGAGGAUCACCCAUGUAGUUCGUCUUAUUUGAAGACAACACAAAAGUGUUGUCUU [Omei Mir OFFv1 B6] (Eterna round: R97, puzzle: Sensor, turn-off variant 1)	15.7		14			
AUUUAGUGAGGAUAUGUGGCUUCGAUCGUGAGAUCGAGGCUACAGAAGGCACAUGAGGAUCACCCAUGUUCCUA [salish99_ex4_r4_115] (Eterna round: R97, puzzle: Exclusion 4)	86.3		21.4			
CAAAAGCUAGGAUAUCGCAAACAAGACAUGAGGAUCACCCAUGUGUCCAUGGCCGACCUCCGAGAAGGAGCAAUAU [Dieded] (puzzle: Exclusion 5)				27.9	32.5	30.5
CAAAAGGGAGGAUAUACUUGAGGAUCACCCAAGUAAUCGGGUCAAAGAUACCAAGCAGGUAGAAGGCCCAAAUA [Teedleveer] (Eterna round: R97, puzzle: Exclusion 3)	91.5		84.7			
CAAAAUGCUCGAGGAUAUCCGAGGAGCAGAAAAGGAGAAGGCGAGGAUAAAGAACAUGAGGAUCACCCAUGUGAACCUCGUAAU [Lereores] (Eterna round: R96, puzzle: Exclusion NG 1)	16.9	14.6	16.1			
CAAACAAAGUCAGGAUAUGUCAAAUUUGUUACGACAGAAGGGACGGGACCGACACUCACAGACAUGAGGAUCACCCAUGUAAAA [Areris] (Eterna round: R96, puzzle: Exclusion NG 1)	37.8	19	33.5			
CAAACAAGCGAAAGAUCCCACAUGAGGAUCACCCAUGUGCUCGUCUUAUAAGGUACUGUGACGAUAGUCACGGUACC [Mat - Sensor, turn-off var - Eli Mod - D79] (Eterna round: R97, puzzle: Sensor, turn-off variant 1)	36.8		45.2			
CAACAUGGACCUCGCUCCGACAUGAGGAUCACCCAUGUUGGAACCUUACUGGCGUCGAGUGUUGCUCGUCUUACCGU [Eternabot (Original) Solution 10] (Eterna round: R97, puzzle: Sensor, turn-off variant 1)	189		268			
CAACUGUCAGGAUAUCGUGCAUACAACGAAAGUUCUAUGUGCGAGAAGGGACAUGAGGAUCACCCAUGUAAACG [Omei Ex4 A27] (Eterna round: R97, puzzle: Exclusion 4)	199		60.9			
CAAGUCCUUUACUACAAGCACAUGAGGAUCACCCAUGUCAAAUUUGUGCCUCGGUACGGAAGCUCGUCUUUUCGUAG [Eternabot (L2) Solution 1] (Eterna round: R97, puzzle: Sensor, turn-off variant 1)	30		35.6			
CAAUAACAAGCGAGAUCCUACAUGAGGAUCACCCAUGUGCUCGUCUUAAAAGGUACUGUGACGAUAGUCACGGUACC [Mat - Sensor, turn-off var - Eli Mod - D98] (Eterna round: R97, puzzle: Sensor, turn-off variant 1)	15.3		17.9			
CAAUACAAGCGAAGAUCCUACAUGAGGAUCACCCAUGUGCUCGUCUUAAAAGGUACUGAGACGAAAGUCUCGGUACC [Mat - Sensor, turn-off var - Eli Mod - D99] (Eterna round: R97, puzzle: Sensor, turn-off variant 1)	280		367			
CAAUUCAGAGGAUAUGCGCAUAGAUAAGACUUUUUUUCUUAACAUGAGGAUCACCCAUGUAGAAGGCUGUAAAC [Ex2 #62] (Eterna round: R97, puzzle: Exclusion 2)	16.5		16.8			
CACAAAACUGUCAGGAUAUCAGAUGCCGACCCAUAUGAGAAGGGACAUGAGGAUCACCCAUGUACUGGUUCUCA [BmEX4 B.6] (Eterna round: R97, puzzle: Brourd's mod of Exclusion 4)	13.9		19.8			
CACAAGCUUGGGCUCGCUGACAUGAGGAUCACCCAUGUCGGAUCAGACACCAAACGUCUCGAUCACGACGGAUCCAG [Eternabot (Original) Solution 7] (Eterna round: R97, puzzle: Sensor, turn-off variant 1)	40		33.3			
CACAUGAGACGGAGAUCCAACAUGAGGAUCACCCAUGUCUCAAAAGCUUUUUGCUUGUCUUAUCCUCCUCUCGUGAC [Mat - Sensor, turn-off var - Eli Mod - D61] (Eterna round: R97, puzzle: Sensor, turn-off variant 1)	47.8		46.7			
CACCGUUACAGAGGAUAUCGUACAUGAGGAUCACCCAUGUAAUAAAUGAGAAUUUCGGAUGUAUGCGAGAAGGCUGGAAUCGGC [Ostracism 37 - Jieux - Exclusion NG 2] (Eterna round: R96, puzzle: Exclusion NG 2)		20.7				
CACCGUUAGAGAGGAUAUCGUACAUGAGGAUCACCCAUGUAAUAAAUGAGAAUUUCGGAUGUCUGCGAGAAGGCUCGAAUCGGC [Ostracism 32 - Jieux - Exclusion NG 2] (Eterna round: R96, puzzle: Exclusion NG 2)		23				
CACGUGUCAGGAUAUCCCGCGCGCGCUUCACCGAGAGUGCGGGAGAAGGGACAUGAGGAUCACCCAUGUCCUUC [Eternabot (L1) Solution 93] (Eterna round: R97, puzzle: Exclusion 4)	12.8		16.2			
CACUUACAUGAGGAUCACCCAUGUGAGGAUAUCGUGACCAGACGAGAAGUCUAUGUCACGAGAAGGUACAUGGG [Exclusion 1 (Mod 1.1 solution 97 by Eternabot)] (Eterna round: R97, puzzle: Exclusion 1)	93.3		574			
CAGACACAUGAGGAUCACCCAUGUGAGGAUAUGCGUACGUUGUCCGUAGGCGACGUGCGCAGAAGGCACAAAGG [JL-ex1-3.09 Eli mod] (puzzle: Exclusion 1)				52.7		
CAGCAGAGAGGAUAUACUUGAGGAUCACCCAAGUGACACCGCCUGGUGCGAACUUGAAGUAGAAGGUUCGGCUA [Entema] (Eterna round: R97, puzzle: Exclusion 3)	24.7		19.7			
CAGCGAUCAGGAUAUACAUGAGGAUCACCCAUGUGUUCCAGCUAGGAAACUAGCAAAUGUAGAAGGGAUCGCUG [jl-ex3-4.00 salish99 mod] (Eterna round: R97, puzzle: Exclusion 3)	32.2		346			
CAGCUGAAAGUGAGGAUAUAGACUGCCUCGGCAGUCUAGAAGGCACAUGAGGAUCACCCAUGUCUCAACAGCUG [BmEx4/1-B2] (Eterna round: R97, puzzle: Brourd's mod of Exclusion 4)	70.2		11.3			
CAGUACAGAGGAUAUACAUGAGGAUCACCCAUGUGUUUCAGGUACGAGAGUACCGAAUGUAGAAGGCUGUACUG [jl-ex3-4.27 salish99 mod] (Eterna round: R97, puzzle: Exclusion 3)	229		24.5			
CAGUACUACAAGCUAAGGGACAUGAGGAUCACCCAUGUUCGUCUUAUUGAUCUAGGUACGCUGACGUACCUAGAUCU [JL-sv1-2.18 Brourd mod] (puzzle: Sensor v3, turn-off variant 1)				20.8	13.6	13.8
